Half maximal inhibition of histone H1 kinase activity data for one substance are collected here from patent EP0723402B1.

The assay addresses cyclin/cdk2 complexes immunoprecipitated from HeLa cell extracts by cdk2 antisera (UniProt P24941). The assay can be described thus: cell-based or functional assay.

“GST-SDI-1 fusion protein (Schistosoma japonicum glutathione S-transferase amino acids 1-226, hinge Pro-Arg-Gly-Asp-Pro-Pro-Ala, SDI-1)” displayed a half maximal inhibition of histone H1 kinase activity of 250 ng.
